This sample holds only a part of the variants without activity.
B1: TPR 5TU (parent)
chain: GGAUCUUCUCGAUCUAACAAAAAAGACAAAUCUGCCACAAAGCUUGAGAGCAUCUUCGGAUGCAGAGGCGGCAGCCUUCGGUGGCGCGAUAGCGCCAACGUUCUCAACUAUGACACGCAAAACGCGUGCUCCGUUGAAUGGAGUUUAUCAUG

Variants of: B1
Test: polymerase ribozyme fitness, log enrichment relative to wild type (log ratio); higher = more active; in vitro selection for triplet polymerase activity
Outline: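 Each subunit of a heterodimeric triplet polymerase ribozyme was represented by a PCR-built, transcribed mutant library that underwent triplicate single-round in vitro selection with frozen incubation at −7 °C. Extended constructs were recovered by gel excision, streptavidin-bead capture and RT-PCR, and Illumina sequencing of input and output libraries kept genotypes with ≥10 input reads and ≥1 read per output. Fitness is the logarithm of genotype enrichment relative to wild-type enrichment, from inverse-variance-weighted replicate averages, with a logarithm base of 2.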
With A3G C87U C132G the “polymerase ribozyme fitness (log ratio)” value was -4.07. With A3G C10G A41G C76A U145A the “polymerase ribozyme fitness (log ratio)” value was at most -4.2. With A3U C36A G42C C87A A89G G100C the “polymerase ribozyme fitness (log ratio)” value was at most -4.2. In the case of U4A C96A A98C A115U A142U G152C, the “polymerase ribozyme fitness (log ratio)” value is reported as at most -4.2. With U4A A20G C35A U55G C72U C99U A120U U146A the “polymerase ribozyme fitness (log ratio)” value was at most -4.2. For U4C A22C G48U C93G A122C, the “polymerase ribozyme fitness (log ratio)” value was -3.98. In the case of A3G A22C U45C A66C G67C C93U A113U, the “polymerase ribozyme fitness (log ratio)” value is reported as at most -4.2. With A3G U82G C96U U148A the “polymerase ribozyme fitness (log ratio)” value was -4.17. For A3U A47C C105U A120C G124A, the “polymerase ribozyme fitness (log ratio)” value was -1.78. With A3U U15G C51A G84U U151G the “polymerase ribozyme fitness (log ratio)” value was at most -4.2. With A3U G80U the “polymerase ribozyme fitness (log ratio)” value was -0.722. With U4C A17G C18A C57A G59A G68A C96A A107U A121U C123G the “polymerase ribozyme fitness (log ratio)” value was at most -4.2. For U4A C5G C69U C79U C85U G94C G117A G128U, the “polymerase ribozyme fitness (log ratio)” value was at most -4.2. In the case of A3U A19U C57U G62U C69U C85U C99G U130C G136U U146G, the “polymerase ribozyme fitness (log ratio)” value is reported as at most -4.2. For A3U G62U G94A, the “polymerase ribozyme fitness (log ratio)” value was -1.08. In the case of A3U C8G, the “polymerase ribozyme fitness (log ratio)” value is reported as at most -4.2. For A3U C8U, the “polymerase ribozyme fitness (log ratio)” value was -0.611. With A3G U56C C87A G92C the “polymerase ribozyme fitness (log ratio)” value was -2.12. For A3G C14G U55A U56A C85U, the “polymerase ribozyme fitness (log ratio)” value was -4.18. With U4A G50A U82G U134C the “polymerase ribozyme fitness (log ratio)” value was -2.39. For A3U U56C C87U A89G U101G, the “polymerase ribozyme fitness (log ratio)” value was -2.52. In the case of A3U A16C A52U C57U C76U G86U, the “polymerase ribozyme fitness (log ratio)” value is reported as at most -4.2. In the case of A3G C18U C27G A28U U78A, the “polymerase ribozyme fitness (log ratio)” value is reported as at most -4.2. For A3U A28C G84A G117U A119U G124U, the “polymerase ribozyme fitness (log ratio)” value was at most -4.2. In the case of A3U C87U, the “polymerase ribozyme fitness (log ratio)” value is reported as -0.956. In the case of A3U C87G, the “polymerase ribozyme fitness (log ratio)” value is reported as -3.94. For U4A C38A U53G C85U G94C A107G A137C G140A, the “polymerase ribozyme fitness (log ratio)” value was at most -4.2. For A3U C8A C18U A47C A49U C93U U102G A107G G133U, the “polymerase ribozyme fitness (log ratio)” value was at most -4.2. With A3G A52U C54U U77G A121G A122G A137G the “polymerase ribozyme fitness (log ratio)” value was at most -4.2. For A3U G59C C85U G126A, the “polymerase ribozyme fitness (log ratio)” value was -0.686. For A3U A20C A26U C57G C108U, the “polymerase ribozyme fitness (log ratio)” value was at most -4.2. In the case of U4A C8U A24C C96U, the “polymerase ribozyme fitness (log ratio)” value is reported as at most -4.2. With A3G A17U A60U the “polymerase ribozyme fitness (log ratio)” value was -1.21. For U4C A12G A73G C93U G152A, the “polymerase ribozyme fitness (log ratio)” value was -3.07. For A3G U6A A39U G84U U134A U144C A150U, the “polymerase ribozyme fitness (log ratio)” value was at most -4.2. With U4C the “polymerase ribozyme fitness (log ratio)” value was 0.371. For U4A, the “polymerase ribozyme fitness (log ratio)” value was -0.014. For A3U A37U C96U C118G, the “polymerase ribozyme fitness (log ratio)” value was -3.38. In the case of U4A A29U C38U U44A U55A C57U C87G C95G, the “polymerase ribozyme fitness (log ratio)” value is reported as at most -4.2. In the case of A3U A22G C43U G68A U78G G92A A107U A110G A113G U151C, the “polymerase ribozyme fitness (log ratio)” value is reported as at most -4.2. With A3U C14G G50C C85U G88A the “polymerase ribozyme fitness (log ratio)” value was at most -4.2. With U4A C36A G48C G86A the “polymerase ribozyme fitness (log ratio)” value was at most -4.2. With U4C A16C A19U G86U C96A C108A the “polymerase ribozyme fitness (log ratio)” value was at most -4.2. For A3G C63U A73G G86U U135A, the “polymerase ribozyme fitness (log ratio)” value was -3.75. With U4A C54U U56A C79G C85U C103G C116U G143C the “polymerase ribozyme fitness (log ratio)” value was at most -4.2. In the case of A3U C54U, the “polymerase ribozyme fitness (log ratio)” value is reported as -1.57. In the case of A3U C35G C93U G100A C105G G133C, the “polymerase ribozyme fitness (log ratio)” value is reported as at most -4.2. In the case of A3G G84A A98U, the “polymerase ribozyme fitness (log ratio)” value is reported as -1.36. In the case of U4A C5U C32A C54U G58A A73G G84A A91G A121U C125U U145C U146C, the “polymerase ribozyme fitness (log ratio)” value is reported as at most -4.2. In the case of A3G C8G A30G G48C A64C C87G A137G, the “polymerase ribozyme fitness (log ratio)” value is reported as at most -4.2. For A3U C76U G124C G141C, the “polymerase ribozyme fitness (log ratio)” value was -3.96. With U4A A37C U61A A66G G133U U144A the “polymerase ribozyme fitness (log ratio)” value was at most -4.2. For A3G C43U A60C G84A U130A, the “polymerase ribozyme fitness (log ratio)” value was at most -4.2. For A3U C8U C27A A28C C51A A52C C54A C93U C103G C108G A115C C118A U135A A142U, the “polymerase ribozyme fitness (log ratio)” value was at most -4.2. For U4A U33A G48C C57U C85U A115G C129G G141U, the “polymerase ribozyme fitness (log ratio)” value was at most -4.2. In the case of A3U G25C C38U C85A C116A C123U, the “polymerase ribozyme fitness (log ratio)” value is reported as -2.27. For A3U U7A A37U G67U A91C G143A, the “polymerase ribozyme fitness (log ratio)” value was at most -4.2. For U4A A41C G126C, the “polymerase ribozyme fitness (log ratio)” value was -1.9. In the case of U4A A19U A24U C35A C57G A60C U101G, the “polymerase ribozyme fitness (log ratio)” value is reported as at most -4.2. In the case of U4A A16U A113C A115U, the “polymerase ribozyme fitness (log ratio)” value is reported as at most -4.2. In the case of U4A G83C G94U U148G, the “polymerase ribozyme fitness (log ratio)” value is reported as at most -4.2. For A3G A73U A121U, the “polymerase ribozyme fitness (log ratio)” value was -0.51. For A3U U7A C8A C63U U90G, the “polymerase ribozyme fitness (log ratio)” value was at most -4.2. For A3U C8A U13G U90A C93A A107G G143C, the “polymerase ribozyme fitness (log ratio)” value was at most -4.2. In the case of U4A C85U, the “polymerase ribozyme fitness (log ratio)” value is reported as -1.53. With A3G U4A U53C G59U U61A G71C C85A the “polymerase ribozyme fitness (log ratio)” value was at most -4.2. With A3U C76G A89U C93U G100A A137C G143U U144A the “polymerase ribozyme fitness (log ratio)” value was at most -4.2. For A3U U53A, the “polymerase ribozyme fitness (log ratio)” value was -1.77. With A3U C76A C87U A113C U130A the “polymerase ribozyme fitness (log ratio)” value was at most -4.2. In the case of A3G U7G G46A A47U C51U G94C C125U G143A, the “polymerase ribozyme fitness (log ratio)” value is reported as at most -4.2. For A3U U82G U104G, the “polymerase ribozyme fitness (log ratio)” value was -1.04. With A3U C18U A20C A30C A41C C69U G94A C103G the “polymerase ribozyme fitness (log ratio)” value was at most -4.2. With A3U U31G A40U U53A C85U C95U the “polymerase ribozyme fitness (log ratio)” value was -3.06. With A3U U61G C95U the “polymerase ribozyme fitness (log ratio)” value was -1.39. With U4A A21C G80A the “polymerase ribozyme fitness (log ratio)” value was -0.338. With A3U G59U U82A C93A A142C the “polymerase ribozyme fitness (log ratio)” value was at most -4.2. In the case of U4A C76A G86C A122C, the “polymerase ribozyme fitness (log ratio)” value is reported as -3.26. For U4A C5G G58A A73U C75U C85A G100A C105G U145A, the “polymerase ribozyme fitness (log ratio)” value was at most -4.2. In the case of U4A G11C A41U G50C G58A G59U U82C C87U G92U G140A, the “polymerase ribozyme fitness (log ratio)” value is reported as at most -4.2. In the case of U4A G65A C85U A97U, the “polymerase ribozyme fitness (log ratio)” value is reported as -2.2. For A3U A17G A49C C93A U104A A119C C132U G141C U145G, the “polymerase ribozyme fitness (log ratio)” value was at most -4.2. For A3G C14G A147U, the “polymerase ribozyme fitness (log ratio)” value was -2.9. In the case of A3U U13G A20U G74C, the “polymerase ribozyme fitness (log ratio)” value is reported as at most -4.2. With A3U G46A G50U U56A G74A G84U U130A U144C C149U the “polymerase ribozyme fitness (log ratio)” value was at most -4.2.
